Earlier results, collected in patent US20230210827A1, “METHODS AND COMPOSITIONS FOR TREATING ANEMIA USING ACTRIIB LIGAND TRAPS AND MTOR INHIBITORS” (Celgene Corporation, priority 2020, published 2023).
Numbering of substitutions follows the chain as printed. In names and notes the source's numbering stands. Each block holds one molecule with its values, some of them ahead of it.

Legend:
activin = settings: ActRIIB variants; background statements
GDF-11 = biological target: T1, GDF-11 (Homo sapiens, UniProt O95390); settings: ActRIIB variants; background statements
T1 sequence (O95390 299-407): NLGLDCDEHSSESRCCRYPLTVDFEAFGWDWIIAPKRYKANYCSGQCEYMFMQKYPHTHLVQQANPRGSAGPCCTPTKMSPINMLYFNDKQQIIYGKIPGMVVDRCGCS

B3: R64: Fc fusion protein with an arginine at position 64 of the ActRIIB precursor amino acid sequence (protein)
chain: SGRGEAETRECIYYNANWELERTNQSGLERCEGEQDKRLHCYASWRNSSGTIELVKKGCWLDDFNCYDRQECVATEENPQVYFCCCEGNFCNERFTHLPEAGGPEVTYEPPPTAPTGGGTHTCPPCPAPELLGGPSVFLFPPKPKDTLMISRTPEVTCVVVDVSHEDPEVKFNWYVDGVEVHNAKTKPREEQYNSTYRVVSVLTVLHQDWLNGKEYKCKVSNKALPVPIEKTISKAKGQPREPQVYTLPPSREEMTKNQVSLTCLVKGFYPSDIAVEWESNGQPENNYKTTPPVLDSDGSFFLYSKLTVDKSRWQQGNVFSCSVMHEALHNHYTQKSLSLSPGK
modifications: fusion protein comprising a soluble extracellular domain of ActRIIB (R64; SEQ ID NO15) fused to an Fc domain
affinity for / binding to activin (activin): low nanomolar to high picomolar range | affinity for / binding to GDF-11 (GDF-11): low nanomolar to high picomolar range

B4: L79A: ActRIIB extracellular domain polypeptide with L79A mutation (protein, UniProt Q13705 19-137, looked up, variant L79A)
extracellular domain: SGRGEAETRECIYYNANWELERTNQSGLERCEGEQDKRLHCYASWRNSSGTIELVKKGCWADDFNCYDRQECVATEENPQVYFCCCEGNFCNERFTHLPEAGGPEVTYEPPPTAPTLLT
modifications: extracellular domain
notes: ActRIIB extracellular domain polypeptide with L79A mutation
affinity for / binding to GDF-11 (GDF-11): reduce GDF-11 binding to a greater extent than activin binding

B5: L79E: ActRIIB extracellular domain polypeptide with L79E mutation (protein, UniProt Q13705 19-137, looked up, variant L79E)
extracellular domain: B4 extracellular domain with A61E
modifications: extracellular domain
notes: ActRIIB extracellular domain polypeptide with L79E mutation
affinity for / binding to activin (activin): greatly reduced activin binding | affinity for / binding to GDF-11 (GDF-11): retain GDF-11 binding

B6: L79P: ActRIIB extracellular domain polypeptide with L79P mutation (protein, UniProt Q13705 19-137, looked up, variant L79P)
extracellular domain: B4 extracellular domain with A61P
modifications: extracellular domain
notes: ActRIIB extracellular domain polypeptide with L79P mutation
affinity for / binding to GDF-11 (GDF-11): reduce GDF-11 binding to a greater extent than activin binding

Now from value to molecule:

affinity for / binding to activin (activin): reduced binding to GDF-11 and activin | affinity for / binding to GDF-11 (GDF-11): reduced binding to GDF-11 and activin
B1: ActRIIB(20-119)-Fc: ActRIIB-Fc fusion protein containing amino acids 20-119 of SEQ ID NO:14 (SEQ ID NO:18) (protein)
chain: GRGEAETRECIYYNANWELERTNQSGLERCEGEQDKRLHCYASWRNSSGTIELVKKGCWLDDFNCYDRQECVATEENPQVYFCCCEGNFCNERFTHLPEA
modifications: human ActRIIB soluble (extracellular), processed polypeptide sequence with the C-terminal 15 aa deleted (aa 20-119 of SEQ ID NO14)

affinity for / binding to activin (activin): relatively low affinity | affinity for / binding to GDF-11 (GDF-11): relatively low affinity
B2: A64: Fc fusion protein having ActRIIB extracellular sequence with alanine at position 64 of SEQ ID NO:2 (protein)
chain: B3 chain with R46A
modifications: fusion protein comprising a soluble extracellular domain of ActRIIB (A64; SEQ ID NO 3) fused to an Fc domain

affinity for / binding to activin (activin): greatly reduced activin binding | affinity for / binding to GDF-11 (GDF-11): retain GDF-11 binding
B7: L79D: ActRIIB extracellular domain polypeptide with L79D mutation (protein, listed as Homo sapiens)
chain: MTAPWVALALLWGSLWPGSGRGEAETRECIYYNANWELERTNQSGLERCEGEQDKRLHCYASWANSSGTIELVKKGCWDDDFNCYDRQECVATEENPQVYFCCCEGNFCNERFTHLPEAGGPEVTYEPPPTAPTLLTVLAYSLLPIGGLSLIVLLAFWMYRHRKPPYGHVDIHEDPGPPPPSPLVGLKPLQLLEIKARGRFGCVWKAQLMNDFVAVKIFPLQDKQSWQSEREIFSTPGMKHENLLQFIAAEKRGSNLEVELWLITAFHDKGSLTDYLKGNIITWNELCHVAETMSRGLSYLHEDVPWCRGEGHKPSIAHRDFKSKNVLLKSDLTAVLADFGLAVRFEPGKPPGDTHGQVGTRRYMAPEVLEGAINFQRDAFLRIDMYAMGLVLWELVSRCKAADGPVDEYMLPFEEEIGQHPSLEELQEVVVHKKMRPTIKDHWLKHPGLAQLCVTIEECWDHDAEARLSAGCVEERVSLIRRSVNGTTSDCLVSLVTSVTNVDLPPKESSI
modifications: human ActRIIB precursor protein sequence (A64)
notes: ActRIIB extracellular domain polypeptide with L79D mutation
